Data published in US20200282021A1.

Molecular target: GLP-1 receptor expressed on the transgenic cell line GLP1R_cAMP/luc
Experiment: cell-based or functional assay

EC50, cAMP-dependent luciferase reporter in GLP-1R over-expressing cells: 6.66 pM
Substance: Dulaglutide (TRULICITY) (Fc fusion)
